Reference: PMC3620054, “Lsb1 Is a Negative Regulator of Las17 Dependent Actin Polymerization Involved in Endocytosis” (PLoS ONE, 2013)

Molecular target: T1, Las17 (purified recombinant) (S. cerevisiae, UniProt Q12446 1-633)
T1 construct: Las17, the WASP homolog of S. cerevisiae; also called WASP homolog; source: recombinant, purified, produced as reported [25], [45], [46]
Assay: SPR; Las17 coupled via an amino group to a CM5 chip, Biacore3000, 25°C, HBS-EP buffer, Lsb1, Lsb2 or their SH3 domains at 25 nM to 10 µM
Details: both partners purified

T1 sequence (Q12446 whole entry): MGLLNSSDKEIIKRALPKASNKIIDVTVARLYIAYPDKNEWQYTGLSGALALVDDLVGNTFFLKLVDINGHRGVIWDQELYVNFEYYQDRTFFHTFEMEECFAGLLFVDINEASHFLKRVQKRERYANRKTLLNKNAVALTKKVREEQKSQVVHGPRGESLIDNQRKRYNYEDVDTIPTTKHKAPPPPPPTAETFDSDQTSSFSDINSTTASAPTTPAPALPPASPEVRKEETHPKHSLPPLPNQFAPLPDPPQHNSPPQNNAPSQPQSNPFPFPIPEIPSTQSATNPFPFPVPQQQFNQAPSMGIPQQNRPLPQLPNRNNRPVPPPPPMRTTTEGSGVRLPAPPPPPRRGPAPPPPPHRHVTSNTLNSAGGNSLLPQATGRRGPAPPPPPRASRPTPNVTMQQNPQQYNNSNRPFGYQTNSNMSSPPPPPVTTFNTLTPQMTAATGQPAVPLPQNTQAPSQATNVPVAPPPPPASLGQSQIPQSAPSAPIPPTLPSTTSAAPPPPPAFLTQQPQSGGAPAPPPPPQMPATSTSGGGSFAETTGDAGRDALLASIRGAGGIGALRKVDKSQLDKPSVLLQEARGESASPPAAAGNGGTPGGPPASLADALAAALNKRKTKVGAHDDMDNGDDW

Row | Kd [nM] | Binder
1 | 79 | Lsb2 (purified, GST cleaved off) (natural protein, S. cerevisiae, UniProt Q06449 1-215, looked up, Lsb2 (Pin3), S. cerevisiae, full-length, from pGEX4T-1; also called full-length Lsb2; Pin3; source: E. coli BL21, purified (glutathione Sepharose, thrombin cleavage, size exclusion chromatography)) MSASLINRSLTNIRTELDFLKGSNVISNDVYDQINKSLPAKWDPANAPRNASPASLEYVEALYQFDPQQDGDLGLKPGDKVQLLEKLSPEWYKGSCNGRTGIFPANYVKPAFSGSNGPSNLPPPPQYKAQELQQIPTQNSAASSYQQQPFPPPSTNYYQQPQQQPQQAPPPQQQQQQQQHQSSHSHLKSFGSKLGNAAIFGAGASIGSDIVNNIF
2 | 730 | SH3-Lsb2 (purified, GST cleaved off) (domain or fragment, S. cerevisiae, UniProt Q06449 59-110, looked up, Lsb2 (Pin3), S. cerevisiae, SH3 domain, residues 59-110, from pGEX4T-1; also called SH3 domain of Lsb2; source: E. coli BL21, purified (glutathione Sepharose, thrombin cleavage, size exclusion chromatography)) VEALYQFDPQQDGDLGLKPGDKVQLLEKLSPEWYKGSCNGRTGIFPANYVKP
3 | 792 | SH3-Lsb1 (purified, GST cleaved off) (domain or fragment, S. cerevisiae, UniProt P53281 57-109, looked up, Lsb1, S. cerevisiae, SH3 domain, residues 57-109, from pGEX4T-1; also called SH3 domain of Lsb1; source: E. coli BL21, purified (glutathione Sepharose, thrombin cleavage, size exclusion chromatography)) YVEALYDFEAQQDGDLSLKTGDKIQVLEKISPDWYRGKSNNKIGIFPANYVKP
4 | 30 | Lsb1 (purified, GST cleaved off) (natural protein, S. cerevisiae, UniProt P53281 1-241, looked up, Lsb1, S. cerevisiae, full-length, from pGEX4T-1; also called full-length Lsb1; source: E. coli BL21, purified (glutathione Sepharose, thrombin cleavage, size exclusion chromatography)) MSASLVNRSLKNIRNELEFLKESNVISGDIFELINSKLPEKWDGNQRSPQNADTEEYVEALYDFEAQQDGDLSLKTGDKIQVLEKISPDWYRGKSNNKIGIFPANYVKPAFTRSASPKSAEAASSSTVSRPSVPPPSYEPAASQYPSQQVSAPYAPPAGYMQAPPPQQQQAPLPYPPPFTNYYQQPQQQYAPPSQQAPVEAQPQQSSGASSAFKSFGSKLGNAAIFGAGSAIGSDIVNSIF
